Consider two molecules from PMC12478261.

Data set [1] concerns the target T1, nCRP (native pentameric C-reactive protein) (UniProt P02741 19-224).
T1 sequence: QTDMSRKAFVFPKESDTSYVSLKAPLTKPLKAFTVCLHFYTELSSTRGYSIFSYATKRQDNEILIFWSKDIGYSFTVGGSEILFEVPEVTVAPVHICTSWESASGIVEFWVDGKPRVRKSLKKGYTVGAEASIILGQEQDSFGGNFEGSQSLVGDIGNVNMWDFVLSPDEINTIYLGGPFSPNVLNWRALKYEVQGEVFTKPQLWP
Kind of data set: bead pull-down, Qubit ssDNA quantification.

Data set [2] has as its target T2, mCRP (monomeric C-reactive protein) (UniProt P02741 19-224).
T2 sequence: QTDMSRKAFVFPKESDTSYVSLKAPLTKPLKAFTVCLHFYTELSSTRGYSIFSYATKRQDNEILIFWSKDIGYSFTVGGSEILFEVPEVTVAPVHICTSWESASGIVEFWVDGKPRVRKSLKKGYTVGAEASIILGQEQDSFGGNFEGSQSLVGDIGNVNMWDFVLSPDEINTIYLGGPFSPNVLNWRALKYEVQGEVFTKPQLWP
Kind of data set: SPR. For orientation: In SPR one partner is held on a chip, and binding of the other changes the refractive index at the surface.

Turning to TTGACCCTTTAAGGTCGTCCGGAAACGGGC (ssDNA) [ApmCRP4], in data set [1], the binding result is “no binding”.

On to CCAATGGCCCTAGGGCTGCAAATCGCTGCC (ssDNA) [ApmCRP3], for which, in data set [2], binding was put at a Kd of 400 nM.
